In a protein production outcome set (Wang et al. 2014):

Assay: label from the status in PepcDB records
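Note: failed if final PepcDB status was selected cloned or expressed and not failed if soluble or beyond.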

MALLCYNRGCGQRFDPETNSDDACTYHPGVPVFHDALKGWSCCKRRTTDFSDFLSIVGCTKGRHNSEKPPEPVKPEVKTTEKKELCELKPKFQEHIIQAPKPVEAIKRPSPDEPMTNLELKISASLKQALDKLKLSSGNEENKKEEDNDEIKIGTSCKNGGCSKTYQGLESLEEVCVYHSGVPIFHEGMKYWSCCRRKTSDFNTFLAQEGCTKGKHMWTKKDAGKKVVPCRHDLHQTGGEVTISVYAKNSLPELSRVEANSTLLNVIIVFEGEKEFDQNVKLWGVIDVKRSYVTMTATKIEITMRKAEPMQWASLELPAAKKQEKQKDDTTD
protein production: not failed

MSPSHSINSNSDGNASCSTCSTCFDTTTSTTDEEYDALIKTKTWSLVPKPAGTNIINSIWLYKHKYNADGSLSRYKSRLVANGKSQEHGVDFYETFSPVVKPATIRAVLNFAVERDSSVHQLDVQNAFLHGKLEETVYMYEPPGFVDNKNPGYVCKLNKALYGFKQAPRAWNARFASYVKMMGFKQSKCDASLFVYKQGNDMAYLLLYVDDIMLTASSPSQEKYAKNIINIVEMQNWKPSLTSVDLACKLEESVGPKIQDLTLYRSLVGALQYLTITRPNISYAVQQGLSITKSPSTKLVADSDADWVGCPNTRRSTSGYCVFLRDTLISWSSKRQGSVSRSSAEAEYKAVANAVVATCEVRVIHIPASHQYADIFTKGLTTSLFNRFKSSLGVIQRPTKRLREGDLLFNRKDEIRTFEVVSRYGHGPKLLGRFSGGRIEEFINARTLSAANLRDAEVPTRVAAKLREFHGINIPGDRNVLIWDRMRNWLRQAKSLCTPEDLAEFGLDKIEDEIYLLEHELQDKCKQQEIGFCHNDLQYGNIMIDEDTNAITIIDYEYASYNPVAYDIANHFCEMAANYKVAGEEERRRFIHNYLSSSGEEPKEDDIKQLLKDAEKYTLASHLFWGLWGIISGYVNKIDFDYAEYSRQRFKQYWLRKPELLLFSQMYISNTK
protein production: failed

MGGGGGSRGPGHAARIAAPPFRPPSPCPAMLAAGEMCGAAHCPARPAPVSCRDRPRRFSSPSPLPGSLFFSPVAAGRRVSRPIFLFCSFGGFCMQRFLTLALLGAAALGGALAQNAAPAPAPAPVAQPAPAPQTAPATPAAQPAAPAVRPPAANYVVVGNLYYDQGKFDQAYVAFRTAAELDPRNTQALLGLGRSQVRLRLYAPAVDTLRRLTTVDPQNVSGYVALSQAYQQQYMGSGDRASVTGNLDAALAVLQQAEAAVTALPEADRALAQSKLLNERGSVYRLQGKPTQAIEAFRQASALNPENSLLLFNLGDMYAASGQLPLAVSALQQAVILDPRDPYNRAYYAKLLALSGNLTSARVEAAQASRLVTGNAYATGQYGVVSYLAGDRTTARTQLAQAVRLDPLRYPEFYYYLGRLDLDGSDLKSARDNLTRAVALNSTSAEYAYYLGLAYERGVPGVAADNVRARENYDKALKLAPGYKQAQEGADRLKPPSSGN
protein production: failed

MEELLDILREFRDSRGWLKYHTPKNLAVSISIEVAELLEIFQWTRSSDEEFEVLERRKGEVEEEIADVLIYLLFLCDVAEINPIEAVKRKMEKNERKYPKNRVHEF
protein production: not failed

MQEQWGYVAISFIIGIAIAFSSSLLLIVFCLFLNVFFCLYRTSRKTFIFCIVACFSSVIYTSYVQTWNKPLGESYGVTRGVIQNTPLVNGDRLSFQFEDQNKNIVQLSYRIKSALEKKKMQQLYAGISCVFEGERKEPETARNFHGFNYRDYLYKQHIHFTFEATYISECYKTSLSLTQWILLLRQQAISKVTEMFPEQSGAFMNALLFGDRQQMTFEVEEQYQQFGLVHLLAISGSHIVLLMVIVYFILLRSGATREVATICLIVCIPLYMVLAGASPSVIRASITGVLMLIAFMCSIRLSSLDALSVTAICMLIYDPYLVFNIGFQFSFVGSFALLLSAPLLLGSSNGVIRNSIYISIISQLVSTPILLYHFGYFSPYSILLNLLYVPFLSIIVLPCSIIILLCMPIVPFLAKGFADVLSIGLSMSNDFLSYCESLPFTQLIFGETPLNLVAVYCASIVSILMVWERRAPKKIVCIVASVFLFISTCHYIYPYFRGSGSVTFIDVGQGDAILIRLPYDKGIYLIDTGGTLRVNKEEWQQKKHEFSVGNDVLIPFLQKEGIKTIDKLIVTHGDADHIGAAQELLSYIPVKEVVFGRKGKDAVLEKVVKKQALEKEMKITEVGEGASWSVNEAEFFVLAPKGKEKSENNASIVIWAKFGGLKWLFTGDLEEEGEKILVEAYPDLQVDVLKVAHHGSNTSSIEPFLNVMQPRVAIISVGKQNRYGHPHKEVIERFEKMGSAIWRTDKQGAISYVFKGENGTFKSKITYDKTHNR
protein production: failed

MLKMKNNGGGCLAYISDCSVYLPVWKLKRDEISKETGMPSMGGERAVAHWDEDSITMAVEAARKFDGAFDAVIFASSSPPFRIKQCASFIASALDLPDSTFTMDITDTMRAATDALITANEFVDSGRFSRVLVVAGDKIPTKPGTLYEQLYGDAAAAVVVEKEGGAKILGYSTSTKPLPGSWMLADDDTVRDYDMRVDARYGYAASVQKAAMPLFAKLGLSPADIDRIVASAPDPKSYQGLLKAVGARPEEFYFDSVGIAGSAHPLLLLATQLEREGRILLGGYGEGADVIAVEIEQAMDSNMGRMLESRKEISYGDYLFNRGFVGVRDAPDRPSLTKFWRDEKSIIRFYGMKCKSCGTVSYPISRCCIECGAKDNYEEVRLGERGKIYTFTIDYLVMPGNYAGDGVHPHFIAVVDLDGGGRVLFELTDTLRDFSGVECDAEVERTFRLLFEKNRFRYYGWKARLPRLEHHHHHH
protein production: not failed

MEHICGTSRIAGFRFSLYPMTDDFISVIKSALKKTDTSKVWTKTDHISTVLRGSIDHVFDAAKAIYLHAANSEQHIVMNGTFSIGCPGDTQGDTYLSKGDKRVNEDAVRGLKAEAPCQFALYPMNEPDYMGLIMEAVDIAKAQGTFVQGVHYASELDGDAHDVFSTLEAVFRMAEQQTNHITMTVNLSANSPSRKNRKQG
protein production: not failed

VKDVRKIQFMPMERHNTELLSLVDNLPDPVFAIDLKGAVDMANMSALSLLGLHKQEVIGTQIGALLPSVRFSRWSEGVNARTRENLVIDGLDYILELMPVY
protein production: failed

MARGREAVTLLLVGWGYAPGMQTLEALDAVRRADVVYVESYTMPGSSWLYKSVVEAAGEARVVEASRRDLEERSREIVSRALDAVVAVVTAGDPMVATTHSSLAAEALEAGVAVRYIPGVSGVQAARGATMLSFYRFGGTVTLPGPWRGVTPISVARRIYLNLCAGLHTTALLDVDERGVQLSPGQGVSLLLEADREYAREAGAPALLARLPSVLVEAGAGGGHRVLYWSSLERLSTADVEGGVYSIVIPARLSGVEEWLLAAASGQRRPLEYDRSVYETVEENCKKGVYMEPV
protein production: not failed

MIMFNYQQTSQSCVKCGKCIPSCTIYNIHPDEVTSPRGFIDLLGAYQRGELELDKNAKDIFEKCFLCTNCTYVCPNLLPTDQVIENVRAEIAQKFGIAWFKRAYFFLLRNRWLMDWGFALGSVFTPLLFKNLPKHQSVKPRFKLPLIGERVFMWLRFKSFMESYPEETLNSDRENPRRVAIFIGCLANYNYTKIGDSLMEILKELRIDAFIPKKQQCCGAPAYFTGDFPTVDKLIKQNVTYFESFIDEVEAIIIPEATCSAMILEDWERFMHNQPEWRERIARLLPKIFIASDWLYHKTDLLKRLEALSVKMDKSITYHDPCHARKVLGVFKEPRALLGANYKIVEMSDPNQCCGFGGVTLQTEKYQYSKKVGIAKTKMIQETGAKIVSAECSACRMQLTNALDHEKIDVEFAHPLELIAEALKARG
protein production: failed

TGELEVVQQAVKEMNDPSQPNEEGITALHNAICGANYSIVDFLITAGANVNSPDSHGWTPLHCAASCNDTVICMALVQHGAAIFATTLSDGATAFEKCDPYREGYADCATYLADVEQSMGLMNSGAVYALWDYSAEFGDELSFREGESVTVLRRDGPEETDWWWAALHGQEGYVPRNYFGLFPRVKPQRSKV
protein production: failed

MDDVQVERILQNPKFKKMVSKKATLSWTLTIIMLIVYVGFMLLVGYNKEFLMSSFSGGVTTWGIPLGLGIIVLSFVLCGVYSYIANNTLDQLNEEALREVENITHEKGLH
protein production: failed

MSLTKVSSLGYPRLGENREWKKLIEAYWAGKVSKNDLFAGAKELRLDFLKKQLNAGLDLIPVGDFSLYDHILDLSVQFNIIPKRFAKEPIDIDLYFAIARGNKENVASSMKKWFNTNYHYIVPEWSKQRPKLNNNRLLDLYLEAREVVGDKAKPVITGPITYVALSTGVEDFTAAVKSLLPLYKQVFTELVKAGASYIQVDEPIFVTDEGKDYLQAAKAVYAYFAKEVPDAKFIFQTYFEGLIDSQVLSQLPVDAFGLDFVYGLEENLEAIKTGAFKGKEIFAGVIDGRNIWSSDFVKTSALLETIEEQSAALTIQPSCSLLHVPVTTKNETDLDPVLRNGLAFADEKLTEVKRLAEHLDGREDPAYDLHIAHFDALQAADFRNVKLEDLSRVATKRPSDFAKRRDIQQEKLHLPLLPTTTIGSFPQSREIRRTRLAWKRGDISDAEYKQFIQAEIERWIRIQEDLDLDVLVHGEFERVDMVEFFGQKLAGFTTTKFGWVQSYGSRAVKPPIIYGDVQHLEPITVEETVYAQSLTDRPVKGMLTGPITITNWSFERTDIPRDQLFNQIGLAIKDEIKLLENAGIAIIQVDEAALREGLPLRKSKQKAYLDDAVHAFHIATSSVKDETQIHTHMCYSKFDEIIDAIRALDADVISIETSRSHGDIIESFETAVYPLGIGLGVYDIHSPRVPTKEEVVANIERPLRQLSPTQFWVNPDCGLKTRQEPETIAALKVLVAATKEVRQKLGNEGHHHHHH
protein production: not failed

AAIILHEIYGINAHIQRAGHEWMTRGFDIYIPALFPHHTPFRYEQQEEAYRHFSANVGFDPAVVTTLLHELRTQYETLIVVGYSVGATLAWLSAASGLCDGVICYYGSRIRQYLHLAPLCPTLVIIARYEPAFDPLAMRQTLEKRPRVQCKMYDARHGFCDADSATFDAALSHQVMDDVSAFIRDI
protein production: failed

MMKKLFLDTHSASGEIKLTDGLLYWFPQFLTPIQADQAFQQMLTHLDWQQKSIRLFGKSVLQPRLIAWYGEKGYRYSGLSLSAQPFPPPLLTLKTQCEQAAQAPFNSVLANLYRDGQDSMGWHQDNEPELGSNPVIASLSLGESRRFLLRHHKDHALQVECELNHGDLLIMAGNTQHFWQHAIPKTRQTKQTRINLTFRNILLEHHHHHH
protein production: not failed

YDDEDYQAEQDRREEQRRAAIAQTGVEVIPVHGVLVSRGSHLNACETMTSYEGLRAALNKAITDPMVEHIVLDIDSPGGSAVGAFELAADIRAATKIKPITGLVNFMAYSGGYLIASACTEVVVSLTSGVGSIGVVASHMDRSKMIEGMGVKVTTVFAGAHKNDLSPNEPITEQSLQVLNEVVQESYQLFTTHVAEYRGRDVADIIATEAACYRGSSAIAIGLADRLESPQ
protein production: failed

MDFKTVMQELEALGKERTKKIYISNGAHEPVFGVATGAMKPIAKKIKLNQELAEELYATGNYDAMYFAGIIADPKAMSESDFDRWIDGAYFYMLSDYVVAVTLSESNIAQDVADKWIASGDELKMSAGWSCYCWLLGNRKDNAFSESKISDMLEMVKDTIHHSPERTKSAMNNFLNTVAISYVPLHEKAVEIAKEVGIVEVKRDNKKSSLLNASESIQKELDRGRLGFKRKYVRC
protein production: not failed

SALTLLEDWCKGMDMDPRKALLIVGIPMECSEVEIQDTVKAGLQPLCAYRVLGRMFRREDNAKAVFIELADTVNYTTLPSHIPGKGGSWEVVVKPRNPDDEFLSRLNYFLKDEGRSMTDVARALGCCSLPAESLDAEVMPQVRSPPLEPPKESMWYRKLKVFSGTASPSPGEETFEDWLEQVTEIMPIWQVSEVEKRRRLLESLRGPALSIMRVLQANNDSITVEQCLDALKQIFGDKEDFGASQFRFLQTSPKIGEKVSTFLLRLEPLLQKAVHKSPLSVRSTDMIRLKHLLARVAMTPALRGKLELLDQRGCPPNFLELMKLIRDEEEWENTEAVMKNKEKPSGRGRGASGRQARAEASVSAPQATVQARSFSDSSPQTIQGGLPPLVKRRRLLGSESTRGEDHGQATYPKAENQTPGREGPQAAGEELGNEAGAGAMSHPKPWET
protein production: not failed

MLWHVFYGRGRMLLSNHAQGRNFRPIFVMSDPISWTAEATERLKEIPFFVRPAARKKIENFAREAGITEITETVYEQAKQKFN
protein production: failed
